# The supplement of paper PMC7877785
# ± gives the uncertainty stated by the source.
# Assay: self-splicing fitness, log relative to wild type (ln ratio); higher = more splicing; Tetrahymena group I intron in knt gene, E. coli kanamycin selection, DiMSum; sequences stand for … in CUCUCU…GGAGGGAAAAGUUAUCAGGCAUGCACCUGGUAGCUAGUCUUUAAACCAAUAGAUUGCAUCGGUUUAAAAGGCAAGACCGUCAAAUUGCGGGAAAGGGGUCAACAGCCGUUCAGUACCAAGUCUCAGGGGAAACUUUGAGAUGGCCUUGCAAAGGGUAUGGUAAUAAGCUGACGGACAUGGUCCUAACCACGCAGCCAAGUCCUAAGUCAACAGAUCUUCUGUUGAUAUGGAUGCAGUUCACAGACUAAAUGUCGGUCGGGGAAGAUGUAUUCUUCUCAUAAGAUAUAGUCGGACCUCUCCUUAAUGGGAGCUAGCGGAUGAAGUGAUGCAACACUGGAGCCGCUGGGAACUAAUUUGUAUGCGAAAGUAUAUUGAUUAGUUUUGGAGUACUCGUGGUCG
# Method in brief: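 A randomised library covering all eight P1ex-region intron nucleotides was built with the intron in the knt kanamycin-resistance gene on pET-22b(+) and held in E. coli BL21(DE3). Cells were grown overnight at 37°C or 30°C on LB agar, with or without 25 μg/mL kanamycin, plus 100 μg/mL carbenicillin, 50 μM IPTG and 0.2% rhamnose, and pooled colonies were amplicon-sequenced on an Illumina HiSeq 2500. DiMSum fitness is the error-weighted combination of wild-type-normalised replicate fold changes, kanamycin versus none.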
Sequence,self-splicing fitness (ln) (30 °C),self-splicing fitness (ln) (37 °C)
AUCCAGCAAUAUUACGCAGG,-2.84 ± 0.3,-2.7 ± 0.37
AUCCAGCAAUAUUACGCAUU,-1.37 ± 0.064,-0.265 ± 0.082
AUCCAGCAAUAUUACGCCCG,-1.84 ± 0.38,-1.04 ± 0.37
AUCCAGCAAUAUUACGCUGC,-3.85 ± 0.19,-1.59 ± 0.15
AUCCAGCAAUAUUACGGAGG,-2.21 ± 0.097,-0.607 ± 0.13
AUCCAGCAAUAUUACGGAUU,-3.25 ± 0.12,-2.83 ± 0.21
AUCCAGCAAUAUUACGGCGC,-0.203 ± 0.1,-0.114 ± 0.14
AUCCAGCAAUAUUACGGGUU,-3.75 ± 0.15,-2.89 ± 0.21
AUCCAGCAAUAUUACGGUAG,-3.97 ± 0.2,-2.6 ± 0.15
AUCCAGCAAUAUUACGGUGC,-1.6 ± 0.096,-1.27 ± 0.14
AUCCAGCAAUAUUACGUAAA,-1.3 ± 0.064,-0.843 ± 0.093
AUCCAGCAAUAUUACGUACA,-1.28 ± 0.11,-0.729 ± 0.18
AUCCAGCAAUAUUACGUACU,-1.56 ± 0.14,-0.416 ± 0.15
AUCCAGCAAUAUUACGUCGA,-0.897 ± 0.097,-0.557 ± 0.12
AUCCAGCAAUAUUACGUGAC,-1.03 ± 0.077,-0.702 ± 0.11
AUCCAGCAAUAUUACGUUAC,-3.89 ± 0.24,-2.59 ± 0.22
AUCCAGCAAUAUUACGUUUU,-2.04 ± 0.083,-1.15 ± 0.11
AUCGAGCAAUAUUACGAAAC,-2.27 ± 0.31,
AUCGAGCAAUAUUACGAAAU,-2.63 ± 0.37,-1.87 ± 0.46
AUCGAGCAAUAUUACGACUA,-1.54 ± 0.24,-0.741 ± 0.15
AUCGAGCAAUAUUACGAGAU,-2.58 ± 0.13,-2.01 ± 0.17
AUCGAGCAAUAUUACGAGGA,-1.16 ± 0.4,-2.07 ± 0.31
AUCGAGCAAUAUUACGAGUG,-3.32 ± 0.3,-2.09 ± 0.32
AUCGAGCAAUAUUACGAUGC,-2.77 ± 0.47,-1.77 ± 0.42

Sequence,self-splicing fitness (ln) (30 °C),self-splicing fitness (ln) (37 °C)
AUCGAGCAAUAUUACGCUGC,-2.59 ± 0.45,
AUCGAGCAAUAUUACGGACG,-2.42 ± 0.17,-2.96 ± 0.2
AUCGAGCAAUAUUACGGCGA,-1.24 ± 0.18,-0.629 ± 0.17
AUCGAGCAAUAUUACGUCCU,-1.18 ± 0.11,-0.423 ± 0.18
AUCGAGCAAUAUUACGUCUU,-2.79 ± 0.12,-1.41 ± 0.12
AUCGAGCAAUAUUACGUGAG,-1.78 ± 0.11,-1.53 ± 0.15
AUCGAGCAAUAUUACGUGGA,-3.68 ± 0.37,-2.33 ± 0.22
AUCGAGCAAUAUUACGUUGU,-4 ± 0.26,-3.62 ± 0.31
AUCGAGCAAUAUUACGUUUA,-2.49 ± 0.29,-2.26 ± 0.37
AUCUAGCAAUAUUACGAAUG,-2.37 ± 0.18,-0.667 ± 0.19
AUCUAGCAAUAUUACGACCC,-0.615 ± 0.21,0.543 ± 0.31
AUCUAGCAAUAUUACGACUG,-2.01 ± 0.14,-1.07 ± 0.15
AUCUAGCAAUAUUACGAGCC,-2.69 ± 0.45,
AUCUAGCAAUAUUACGAGGG,-2.92 ± 0.16,-2.18 ± 0.18
AUCUAGCAAUAUUACGAGUA,-2.58 ± 0.27,-1.53 ± 0.18
AUCUAGCAAUAUUACGAUAA,-2.1 ± 0.22,-1.1 ± 0.3
AUCUAGCAAUAUUACGAUGG,-3.59 ± 0.2,-1.75 ± 0.19
AUCUAGCAAUAUUACGAUUC,-2.85 ± 0.18,-1.23 ± 0.16
AUCUAGCAAUAUUACGCAGU,-2.53 ± 0.18,-2.09 ± 0.2
AUCUAGCAAUAUUACGCCAU,-2.72 ± 0.2,-1.05 ± 0.15
AUCUAGCAAUAUUACGCCCA,-0.101 ± 0.29,-1.32 ± 0.24
AUCUAGCAAUAUUACGCCCG,-0.765 ± 0.38,-0.733 ± 0.3
AUCUAGCAAUAUUACGGAGU,-2.61 ± 0.28,-1.52 ± 0.2
AUCUAGCAAUAUUACGGCGU,-0.0812 ± 0.084,0.429 ± 0.1

Sequence,self-splicing fitness (ln) (30 °C),self-splicing fitness (ln) (37 °C)
AUCUAGCAAUAUUACGGGAU,-2.92 ± 0.2,-2.28 ± 0.22
AUCUAGCAAUAUUACGGGUA,-1.97 ± 0.15,-1.49 ± 0.12
AUCUAGCAAUAUUACGGUAC,-2.16 ± 0.11,-2.44 ± 0.14
AUCUAGCAAUAUUACGUAUU,-2.56 ± 0.15,-2.08 ± 0.19
AUCUAGCAAUAUUACGUCUA,-2.83 ± 0.25,-1.59 ± 0.21
AUCUAGCAAUAUUACGUGCC,-2.47 ± 0.23,-1.08 ± 0.15
AUCUAGCAAUAUUACGUGCG,-1.47 ± 0.21,-0.647 ± 0.17
AUCUAGCAAUAUUACGUGGG,-2.22 ± 0.18,-2.42 ± 0.27
AUCUAGCAAUAUUACGUUUG,-3.39 ± 0.28,-2.04 ± 0.37
AUCUAGCAAUAUUACGUUUU,-2.93 ± 0.11,-1.93 ± 0.12
AUGAAGCAAUAUUACGAAUG,-1.25 ± 0.095,-0.913 ± 0.1
AUGAAGCAAUAUUACGACAC,0.0739 ± 0.12,-0.0401 ± 0.14
AUGAAGCAAUAUUACGACUU,-0.222 ± 0.099,-0.0268 ± 0.12
AUGAAGCAAUAUUACGAUCC,-0.571 ± 0.11,0.455 ± 0.16
AUGAAGCAAUAUUACGCAAC,-1.28 ± 0.16,-1.13 ± 0.16
AUGAAGCAAUAUUACGCAGC,-2.75 ± 0.24,-0.841 ± 0.38
AUGAAGCAAUAUUACGCAUU,-3.78 ± 0.43,-2.52 ± 0.31
AUGAAGCAAUAUUACGCGUG,-0.281 ± 0.066,-0.171 ± 0.099
AUGAAGCAAUAUUACGCUAA,-1.32 ± 0.1,-0.00859 ± 0.13
AUGAAGCAAUAUUACGGAAU,-0.972 ± 0.074,-0.789 ± 0.091
AUGAAGCAAUAUUACGGCCU,0.063 ± 0.094,0.456 ± 0.13
AUGAAGCAAUAUUACGGGCG,-0.667 ± 0.081,0.118 ± 0.1
AUGAAGCAAUAUUACGGGCU,-1.52 ± 0.11,-0.445 ± 0.13
AUGAAGCAAUAUUACGUCUU,-2.04 ± 0.081,-1.44 ± 0.087

Sequence,self-splicing fitness (ln) (30 °C),self-splicing fitness (ln) (37 °C)
AUGAAGCAAUAUUACGUUGC,-3.64 ± 0.2,-3.01 ± 0.26
AUGAAGCAAUAUUACGUUGG,-2.72 ± 0.16,-1.58 ± 0.2
AUGCAGCAAUAUUACGAACC,-1.17 ± 0.17,-0.688 ± 0.21
AUGCAGCAAUAUUACGAACU,-0.238 ± 0.1,0.379 ± 0.11
AUGCAGCAAUAUUACGAAGA,-1.8 ± 0.18,-2.36 ± 0.27
AUGCAGCAAUAUUACGACAG,-0.0726 ± 0.086,-0.339 ± 0.16
AUGCAGCAAUAUUACGACCA,-1.45 ± 0.17,-0.579 ± 0.18
AUGCAGCAAUAUUACGACGG,-1.74 ± 0.11,-1.41 ± 0.14
AUGCAGCAAUAUUACGAGCA,-0.52 ± 0.089,-0.627 ± 0.097
AUGCAGCAAUAUUACGAUGA,-1.93 ± 0.16,-1.04 ± 0.14
AUGCAGCAAUAUUACGAUGU,-0.358 ± 0.061,0.146 ± 0.085
AUGCAGCAAUAUUACGAUUG,-2.67 ± 0.2,-2.83 ± 0.32
AUGCAGCAAUAUUACGCACU,-0.148 ± 0.12,0.309 ± 0.16
AUGCAGCAAUAUUACGCCCC,-0.386 ± 0.27,-1.04 ± 0.27
AUGCAGCAAUAUUACGCGAA,-1.76 ± 0.13,-1.03 ± 0.11
AUGCAGCAAUAUUACGCGGA,-2.88 ± 0.11,-0.559 ± 0.069
AUGCAGCAAUAUUACGCGUA,-2.09 ± 0.18,-1.71 ± 0.2
AUGCAGCAAUAUUACGCUAU,-2 ± 0.12,-1.33 ± 0.14
AUGCAGCAAUAUUACGGCUU,-0.164 ± 0.072,0.254 ± 0.085
AUGCAGCAAUAUUACGUACA,-0.892 ± 0.064,-0.686 ± 0.076
AUGCAGCAAUAUUACGUCAA,-2.35 ± 0.19,-0.997 ± 0.14
AUGCAGCAAUAUUACGUCCU,0.0695 ± 0.095,0.786 ± 0.11
AUGCAGCAAUAUUACGUCGG,-2.43 ± 0.22,-1.91 ± 0.26
AUGCAGCAAUAUUACGUGAU,-1.76 ± 0.067,-0.91 ± 0.08
